For experiment [1], the target named is αIIbβ3 integrin (immobilized) (UniProt P08514). Briefly: ELISA; solid-phase binding: αVβ3 or αIIbβ3 coated on microtiter wells (250 ng per well), blocked with BSA; recalcified plasma treated with PDI-CCCC, PDI-AAAA, ERp57-CCCC or BSA and 0.3 mM DTT for 10 min at 37 °C, stopped with 20 mM NEM, diluted 1:100, 1 h; bound vitronectin detected with rabbit anti-vitronectin and anti-rabbit IgG-HRP. (In general: An ELISA detects its analyte on a solid surface through an enzyme-linked reagent.)

Experiment [2] has as its target αVβ3 integrin (immobilized) (UniProt P06756). The experiment is described as above.
The target of experiment [3] is plasma vitronectin (human (endogenous in plasma; the donor is not stated, anti-human vitronectin antibodies were used)).
Another experiment concerns the target PDI–CACA (human) (UniProt P07237). Briefly: pull-down; kinetic trapping: DTT-reduced FLAG-/SBP-tagged PDI or ERp57 variant (500 ug) added to 5 ml recalcified platelet-rich plasma with GPRP, collagen and thrombin, 3 min at 23°, stopped with hirudin and 20 mM NEM; streptavidin-agarose, washes with 500 mM NaCl and 1.5% Triton X-100, eluted with biotin; non-reducing and reducing 1D or 2D SDS-PAGE, Western blot for FLAG and vitronectin; the complex is a mixed disulfide. On the technique in general: A western blot detects proteins with antibodies after separation by electrophoresis.

Chain of UniProt P06756 (P06756 31-1048, chain 1 of 2): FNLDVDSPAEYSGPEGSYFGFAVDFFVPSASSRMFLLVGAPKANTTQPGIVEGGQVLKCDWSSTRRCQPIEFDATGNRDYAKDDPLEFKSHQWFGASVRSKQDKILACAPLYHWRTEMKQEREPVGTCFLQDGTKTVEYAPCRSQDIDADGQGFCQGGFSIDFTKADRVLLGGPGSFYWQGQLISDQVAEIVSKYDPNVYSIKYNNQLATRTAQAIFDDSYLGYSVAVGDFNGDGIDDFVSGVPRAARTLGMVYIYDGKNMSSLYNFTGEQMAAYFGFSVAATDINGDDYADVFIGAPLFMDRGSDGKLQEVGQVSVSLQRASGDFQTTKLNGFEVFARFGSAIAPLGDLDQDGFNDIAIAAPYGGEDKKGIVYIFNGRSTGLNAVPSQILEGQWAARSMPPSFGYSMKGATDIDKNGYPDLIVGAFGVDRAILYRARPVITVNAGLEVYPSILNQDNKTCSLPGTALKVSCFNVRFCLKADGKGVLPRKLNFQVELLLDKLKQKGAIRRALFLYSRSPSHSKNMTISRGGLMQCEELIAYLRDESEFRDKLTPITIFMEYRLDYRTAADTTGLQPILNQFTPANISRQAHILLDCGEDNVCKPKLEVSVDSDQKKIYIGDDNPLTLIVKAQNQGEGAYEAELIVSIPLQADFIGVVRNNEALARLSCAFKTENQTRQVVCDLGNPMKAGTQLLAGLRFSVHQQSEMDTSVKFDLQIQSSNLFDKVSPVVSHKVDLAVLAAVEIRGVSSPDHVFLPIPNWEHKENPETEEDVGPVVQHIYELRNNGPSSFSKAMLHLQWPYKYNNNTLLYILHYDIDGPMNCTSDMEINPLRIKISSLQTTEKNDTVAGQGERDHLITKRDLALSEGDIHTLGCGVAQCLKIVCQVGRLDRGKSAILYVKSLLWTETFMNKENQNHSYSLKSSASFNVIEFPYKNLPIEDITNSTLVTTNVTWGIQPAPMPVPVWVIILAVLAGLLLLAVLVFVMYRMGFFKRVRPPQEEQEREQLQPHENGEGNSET
Chain of UniProt P06756 (P05106 27-718, chain 2 of 2, further chain): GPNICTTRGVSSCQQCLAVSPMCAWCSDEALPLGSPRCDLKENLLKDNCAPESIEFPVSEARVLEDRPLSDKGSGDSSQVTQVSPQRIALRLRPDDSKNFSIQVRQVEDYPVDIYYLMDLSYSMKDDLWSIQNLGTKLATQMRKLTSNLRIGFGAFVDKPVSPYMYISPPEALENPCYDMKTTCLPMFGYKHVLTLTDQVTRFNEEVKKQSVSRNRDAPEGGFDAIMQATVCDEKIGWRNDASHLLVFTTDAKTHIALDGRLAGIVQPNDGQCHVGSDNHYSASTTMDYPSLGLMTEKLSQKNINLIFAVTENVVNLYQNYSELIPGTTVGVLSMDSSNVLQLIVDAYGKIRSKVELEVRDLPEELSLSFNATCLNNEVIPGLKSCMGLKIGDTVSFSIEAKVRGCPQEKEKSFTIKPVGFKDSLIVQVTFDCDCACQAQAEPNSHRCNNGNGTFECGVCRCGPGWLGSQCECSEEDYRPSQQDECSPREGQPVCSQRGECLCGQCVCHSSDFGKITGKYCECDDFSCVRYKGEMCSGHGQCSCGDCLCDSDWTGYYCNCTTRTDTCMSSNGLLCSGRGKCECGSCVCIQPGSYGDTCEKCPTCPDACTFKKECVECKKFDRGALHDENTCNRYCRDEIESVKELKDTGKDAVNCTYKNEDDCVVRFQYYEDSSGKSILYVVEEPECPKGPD

Turning to “PDI-reduced plasma vitronectin (natural protein)”, the fold increase in bound vitronectin at the highest PDI concentration in experiment [1] is > 3 fold. Moreover, the fold increase in bound vitronectin at the highest PDI concentration (15 μM) in experiment [2] is 4 fold. With “PDI–CCCC (wild type protein disulfide isomerase) (from UniProt P07237 18-508) (enzyme)”, the PEG5000-maleimide incorporated into plasma vitronectin after reduction by the enzyme in NEM-pretreated platelet-poor plasma (0 to 5 min at 1 uM; 0.25 to 2.5 uM for 5 min), gel shift on Western blot (moles per mole of vitronectin) in experiment [3] came to 3.6.

Broadly, the stoichiometry N is the number of molecules, sites or subunits per partner or assembly. In the case of plasma vitronectin (natural protein), the stoichiometry N in the experiment with PDI–CACA (human) is 1.

Values taken from PMC5321760.
